Publication PMC10245814 (bioRxiv, 2023)

Molecular target: T1, BabA^AD (residues 25 to 460 of mature BabA) (Helicobacter pylori 17875/Leb (CCUG …))
T1 chain: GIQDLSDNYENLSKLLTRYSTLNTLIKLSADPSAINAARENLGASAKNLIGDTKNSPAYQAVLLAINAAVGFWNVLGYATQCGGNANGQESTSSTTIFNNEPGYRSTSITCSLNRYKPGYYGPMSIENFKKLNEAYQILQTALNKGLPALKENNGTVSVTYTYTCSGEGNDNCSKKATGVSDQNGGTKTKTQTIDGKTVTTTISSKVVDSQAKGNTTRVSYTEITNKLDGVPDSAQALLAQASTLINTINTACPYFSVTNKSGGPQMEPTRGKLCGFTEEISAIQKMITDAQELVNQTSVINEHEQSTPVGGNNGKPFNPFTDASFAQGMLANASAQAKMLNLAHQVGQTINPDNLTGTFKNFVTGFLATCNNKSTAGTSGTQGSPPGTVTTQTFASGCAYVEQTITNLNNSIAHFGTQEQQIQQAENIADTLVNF
Test: crystal structure

B1: nanobody Nb-ER19 (VHH)
VHH: QVQLQESGGGLVQPGGSLRLSCAASGSIFSGNVMGWYRQAPGKLREWVAAITPQGVPNYADSVKGRFTISRDNAKNMLYLQMSSLKPEDTALYYCNRLPNYRSWGQGTQVTVSS
binding result: binds
